We go through one molecule from publication PMC7261152 (Nucleic Acids Research, 2020).

This experiment deals with T1, human BCMA-Fc fusion protein (human, UniProt Q02223 1-54).
T1 sequence (looked up): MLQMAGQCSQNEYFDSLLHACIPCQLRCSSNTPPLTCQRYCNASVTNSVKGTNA
The experiment in a line: ELISA. A general note: An ELISA detects its analyte on a solid surface through an enzyme-linked reagent.

B1: anti-BCMA DVD-IgG1 (2) (bispecific antibody)
light: DIQMTQSPSSLSASVGDRVTITCSASQDISNYLNWYQQKPGKAPKLLIYYTSNLHSGVPSRFSGSGSGTDFTLTISSLQPEDFATYYCQQYRKLPWTFGQGTKLEIKASTKGPELQMTQSPSSLSASVGDRVTITCRSSQSLLHTYGSPYLNWYLQKPGQSPKLLIYKVSNRFSGVPSRFSGSGSGTDFTLTISSLQPEDFAVYFCSQGTHLPYTFGGGTKVEIKRTVAAPSVFIFPPSDEQLKSGTASVVCLLNNFYPREAKVQWKVDNALQSGNSQESVTEQDSKDSTYSLSSTLTLSKADYEKHKVYACEVTHQGLSSPVTKSFNRGEC
heavy: not shown
B1: the binding result is reported as “binds”.
